US12365732
pEC50, pIC50, pKd: −log10 of the molar value.

Columns and labels:
[1] = molecular target: human CD96 on primary human immune cells (PBMCs, NK cells, CD4+ T cells) (human) (UniProt P40200); assay: FACS, Ab 16 nM
[2] = molecular target: cynomolgus monkey CD96 on cynomolgus monkey PBMCs (cynomolgus monkey); assay: FACS, Ab 16 nM
[3] = molecular target: hu-CD96 isoform 2 on CHO cells (human) (UniProt P40200); assay: FACS, CD155-Fc-FLAG 10 nM, Ab 0.16 nM
[4] = molecular target: human CD96 on primary human immune cells (PBMCs, NK cells, CD4+ T cells) (human) (UniProt P40200); assay: FACS, Ab 3.2 nM
[5] = molecular target: cynomolgus monkey CD96 on cynomolgus monkey PBMCs (cynomolgus monkey); assay: FACS, Ab 3.2 nM
[6] = molecular target: hu-CD96 isoform 2 on CHO cells (human) (UniProt P40200); assay: FACS, blocks 10 nM CD155-Fc-FLAG binding to CD96-CHO
[7] = molecular target: hu-CD96 isoform 2 on CHO cells (human) (UniProt P40200); assay: FACS, Ab 2 nM
hu-CD96 Fc (human) = assay: SPR 37C, biotin-CD96-Fc captured, IgG analyte
[8] = molecular target: human CD96 on primary human immune cells (PBMCs, NK cells, CD4+ T cells) (human) (UniProt P40200); assay: FACS, Ab 0.00512 nM
[9] = molecular target: cynomolgus monkey CD96 on cynomolgus monkey PBMCs (cynomolgus monkey); assay: FACS, Ab 0.00512 nM
[10] = molecular target: hu-CD96 isoform 2 on CHO cells (human) (UniProt P40200); assay: FACS, CD155-Fc-FLAG 10 nM, Ab 4 nM
[11] = molecular target: human CD96 on primary human immune cells (PBMCs, NK cells, CD4+ T cells) (human) (UniProt P40200); assay: FACS, Ab 0.0256 nM
[12] = molecular target: cynomolgus monkey CD96 on cynomolgus monkey PBMCs (cynomolgus monkey); assay: FACS, Ab 0.0256 nM
[13] = molecular target: hu-CD96 isoform 2 on CHO cells (human) (UniProt P40200); assay: FACS, CD155-Fc-FLAG 10 nM, Ab 0.032 nM
hu-CD96D1 D3-hFc (human) = assay: ELISA, coated CD96D1D3-hFc
[14] = molecular target: human CD96 on primary human immune cells (PBMCs, NK cells, CD4+ T cells) (human) (UniProt P40200); assay: FACS, Ab 80 nM
[15] = molecular target: cynomolgus monkey CD96 on cynomolgus monkey PBMCs (cynomolgus monkey); assay: FACS, Ab 80 nM
[16] = molecular target: human CD96 on primary human immune cells (PBMCs, NK cells, CD4+ T cells) (human) (UniProt P40200); assay: FACS, Ab 0.128 nM
[17] = molecular target: cynomolgus monkey CD96 on cynomolgus monkey PBMCs (cynomolgus monkey); assay: FACS, Ab 0.128 nM
[18] = molecular target: human CD96 on primary human immune cells (PBMCs, NK cells, CD4+ T cells) (human) (UniProt P40200); assay: FACS, % positive curve
[19] = molecular target: hu-CD96 isoform 2 on CHO cells (human) (UniProt P40200); assay: FACS, % positive curve
[20] = molecular target: cynomolgus monkey CD96 on cynomolgus monkey PBMCs (cynomolgus monkey); assay: FACS, % positive curve
[21] = molecular target: human CD96 on primary human immune cells (PBMCs, NK cells, CD4+ T cells) (human) (UniProt P40200); assay: cell-based or functional assay
[22] = molecular target: hu-CD96 isoform 2 on CHO cells (human) (UniProt P40200); assay: FACS, Ab 50 nM
[23] = molecular target: hu-CD96 isoform 2 on CHO cells (human) (UniProt P40200); assay: FACS, CD155-Fc-FLAG 10 nM, Ab 20 nM
[24] = molecular target: hu-CD96 isoform 2 on CHO cells (human) (UniProt P40200); assay: FACS, Ab 0.4 nM
[25] = molecular target: hu-CD96 (soluble, isoform 2 extracellular domain) (human) (UniProt P40200); assay: SPR 25C, IgG captured, CD96 analyte
[26] = molecular target: recombinant hu-CD96 (M1-M503-polyHis) (human) (UniProt P40200); assay: ELISA, blocks hu-CD96-his binding to coated CD155-hFc
[27] = molecular target: hu-CD96 isoform 2 on CHO cells (human) (UniProt P40200); assay: FACS, Ab 0.08 nM
[28] = molecular target: hu-CD96 isoform 2 on CHO cells (human) (UniProt P40200); assay: FACS, CD155-Fc-FLAG 10 nM, Ab 0.0064 nM
[29] = molecular target: hu-CD96 isoform 2 on CHO cells (human) (UniProt P40200); assay: FACS, CD155-Fc-FLAG 10 nM, Ab 0.8 nM
[30] = molecular target: human CD96 on primary human immune cells (PBMCs, NK cells, CD4+ T cells) (human) (UniProt P40200); assay: FACS, Ab 0.64 nM
[31] = molecular target: cynomolgus monkey CD96 on cynomolgus monkey PBMCs (cynomolgus monkey); assay: FACS, Ab 0.64 nM
[32] = molecular target: hu-CD96 isoform 2 on CHO cells (human) (UniProt P40200); assay: FACS, Ab 0.016 nM
[33] = molecular target: hu-CD96 isoform 2 on CHO cells (human) (UniProt P40200); assay: FACS, CD155-Fc-FLAG 10 nM, Ab 100 nM
[34] = molecular target: hu-CD96 isoform 2 on CHO cells (human) (UniProt P40200); assay: FACS, Ab 0.0032 nM
[35] = molecular target: hu-CD96 isoform 2 on CHO cells (human) (UniProt P40200); assay: FACS, Ab 10 nM
[36] = molecular target: cy-CD226 His tag (cynomolgus monkey); assay: SPR 25C, biotin-CD226-His captured, IgG analyte
hu-CD226 His tag (human) = hu-CD226 His tag (human) (UniProt Q15762); assay: SPR 25C, biotin-CD226-His captured, IgG analyte
[37] = molecular target: hu-CD96 isoform 1 on HEK293T cells (human) (UniProt P40200); assay: FACS, Ab 2 nM
[38] = molecular target: hu-CD96 isoform 1 on HEK293T cells (human) (UniProt P40200); assay: FACS, Ab 50 nM
[39] = molecular target: hu-CD96 isoform 1 on HEK293T cells (human) (UniProt P40200); assay: FACS, Ab 0.4 nM
[40] = molecular target: hu-CD96 isoform 1 on HEK293T cells (human) (UniProt P40200); assay: FACS, Ab 0.08 nM
[41] = molecular target: hu-CD96 isoform 1 on HEK293T cells (human) (UniProt P40200); assay: FACS, Ab 0.016 nM
[42] = molecular target: hu-CD96 isoform 1 on HEK293T cells (human) (UniProt P40200); assay: FACS, Ab 10 nM

hu-CD96 Fc (human), sequence (chain, as listed by the source): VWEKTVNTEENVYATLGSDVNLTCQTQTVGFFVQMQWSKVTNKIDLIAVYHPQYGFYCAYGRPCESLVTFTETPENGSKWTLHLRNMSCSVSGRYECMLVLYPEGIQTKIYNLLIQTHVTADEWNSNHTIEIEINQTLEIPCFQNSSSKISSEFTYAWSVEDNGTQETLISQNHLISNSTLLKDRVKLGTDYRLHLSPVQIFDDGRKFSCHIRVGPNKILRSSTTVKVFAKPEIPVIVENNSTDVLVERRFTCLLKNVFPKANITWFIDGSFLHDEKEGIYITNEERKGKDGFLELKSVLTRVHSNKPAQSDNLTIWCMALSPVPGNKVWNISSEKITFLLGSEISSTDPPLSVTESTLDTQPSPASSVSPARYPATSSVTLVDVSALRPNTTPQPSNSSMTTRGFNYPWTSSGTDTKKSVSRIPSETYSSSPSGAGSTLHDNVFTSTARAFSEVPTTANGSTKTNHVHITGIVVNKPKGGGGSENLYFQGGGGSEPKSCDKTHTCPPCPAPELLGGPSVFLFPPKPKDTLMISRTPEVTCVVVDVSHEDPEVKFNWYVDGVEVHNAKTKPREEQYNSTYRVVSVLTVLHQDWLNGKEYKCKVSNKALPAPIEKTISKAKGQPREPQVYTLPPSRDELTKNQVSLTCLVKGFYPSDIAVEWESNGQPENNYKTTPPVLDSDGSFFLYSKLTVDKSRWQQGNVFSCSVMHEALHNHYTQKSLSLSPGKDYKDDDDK
hu-CD96D1 D3-hFc (human), sequence (chain, as listed by the source limits assumed): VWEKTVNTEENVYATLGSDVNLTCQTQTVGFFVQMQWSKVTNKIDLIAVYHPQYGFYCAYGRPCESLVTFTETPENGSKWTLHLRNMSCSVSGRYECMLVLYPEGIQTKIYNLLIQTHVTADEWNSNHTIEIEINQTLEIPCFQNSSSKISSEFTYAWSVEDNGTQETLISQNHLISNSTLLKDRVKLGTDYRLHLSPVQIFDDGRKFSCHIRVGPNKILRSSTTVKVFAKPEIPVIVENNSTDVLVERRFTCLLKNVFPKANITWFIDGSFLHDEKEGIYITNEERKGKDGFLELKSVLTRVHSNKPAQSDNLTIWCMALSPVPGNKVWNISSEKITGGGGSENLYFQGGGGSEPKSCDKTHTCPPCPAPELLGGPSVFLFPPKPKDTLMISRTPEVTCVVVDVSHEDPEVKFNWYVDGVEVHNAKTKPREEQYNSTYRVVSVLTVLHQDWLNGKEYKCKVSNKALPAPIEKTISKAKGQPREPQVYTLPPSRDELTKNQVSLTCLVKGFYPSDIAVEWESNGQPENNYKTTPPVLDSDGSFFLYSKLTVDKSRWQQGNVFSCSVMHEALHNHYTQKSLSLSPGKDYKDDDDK
cy-CD226 His tag (cynomolgus monkey), sequence (chain, as listed by the source): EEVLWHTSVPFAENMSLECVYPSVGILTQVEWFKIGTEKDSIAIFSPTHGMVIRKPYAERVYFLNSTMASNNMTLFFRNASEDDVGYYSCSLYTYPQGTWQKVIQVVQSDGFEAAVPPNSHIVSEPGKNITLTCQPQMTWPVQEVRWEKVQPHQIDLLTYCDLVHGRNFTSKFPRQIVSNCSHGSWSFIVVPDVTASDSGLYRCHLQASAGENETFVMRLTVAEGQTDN
hu-CD226 His tag (human), sequence (Q15762 19-247 limits assumed): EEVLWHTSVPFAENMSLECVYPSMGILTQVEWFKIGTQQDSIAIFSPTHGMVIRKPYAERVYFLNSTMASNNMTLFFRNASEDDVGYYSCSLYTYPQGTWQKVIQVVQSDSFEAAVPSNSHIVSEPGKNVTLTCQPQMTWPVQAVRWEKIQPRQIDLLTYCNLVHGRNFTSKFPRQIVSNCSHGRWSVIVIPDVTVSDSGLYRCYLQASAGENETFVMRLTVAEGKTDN

Substance: NK92.39 (antibody)
- % positive [1]: 94.3%
- % positive [2]: 5.4%
- CD155-Fc binding (MedFI) [3]: 62600 MedFI
- % positive [4]: 76.7%
- % positive [5]: 5.2%
- pIC50 [6]: 9.04
- % positive [7]: 15.8%
- pKd (hu-CD96 Fc (human)): 7.85
- koff (hu-CD96 Fc (human)): 0.0012 s⁻¹
- kon (hu-CD96 Fc (human)): 84400 M⁻¹ s⁻¹
- % positive [8]: 1.3%
- % positive [9]: 4.5%
- CD155-Fc binding (MedFI) [10]: 5040 MedFI
- % positive [11]: 0.9%
- % positive [12]: 5%
- CD155-Fc binding (MedFI) [13]: 69300 MedFI
- pEC50 (hu-CD96D1 D3-hFc (human)): 9.01
- % positive [14]: 91.9%
- % positive [15]: 4.9%
- % positive [16]: 2%
- % positive [17]: 5.2%
- pEC50 [18]: 8.91
- pEC50 [19]: 8.94
- pEC50 [20]: 8.96
- Human NK cell IFNγ secretion (fold over background), Ab 0.08 nM [21]: 1.38 fold
- Human NK cell IFNγ secretion (fold over background), Ab 0.4 nM [21]: 0.69 fold
- Human NK cell IFNγ secretion (fold over background), Ab 2 nM [21]: 1.27 fold
- Human NK cell IFNγ secretion (fold over background), Ab 10 nM [21]: 1.39 fold
- Human NK cell IFNγ secretion (fold over background), Ab 50 nM [21]: 1.68 fold
- Human NK cell IFNγ secretion (fold over background), Ab 250 nM [21]: 1.62 fold
- Human NK cell IFNγ secretion, EC50 [21]: 5.53 nM
- Human NK cell IFNγ secretion, maximal efficacy relative to h10G1 [21]: 61%
- % positive [22]: 22%
- CD155-Fc binding (MedFI) [23]: 5040 MedFI
- % positive [24]: 4%
- pKd [25]: 7.84
- pIC50 [26]: 8.59
- % positive [27]: 0.2%
- CD155-Fc binding (MedFI) [28]: 64100 MedFI
- CD155-Fc binding (MedFI) [29]: 40300 MedFI
- % positive [30]: 27.4%
- % positive [31]: 4.7%
- % positive [32]: 0.1%
- CD155-Fc binding (MedFI) [33]: 5050 MedFI
- % positive [34]: 0.1%
- % positive [35]: 21.5%

Substance: anti-hCD226 antibody DX11
- pKd [36]: 10.70
- pKd (hu-CD226 His tag (human)): 8.16

Substance: hu-IgG1 control antibody
- % positive [1]: 4.61%
- % positive [2]: 0.64%
- CD155-Fc binding (MedFI) [3]: 59400 MedFI
- % positive [4]: 4.67%
- % positive [5]: 1.15%
- % positive [8]: 5.29%
- % positive [9]: 0.41%
- CD155-Fc binding (MedFI) [10]: 63100 MedFI
- % positive [11]: 5.5%
- % positive [12]: 0.57%
- CD155-Fc binding (MedFI) [13]: 52800 MedFI
- % positive [14]: 3.1%
- % positive [15]: 2.36%
- % positive [16]: 3.98%
- % positive [17]: 0.31%
- CD155-Fc binding (MedFI) [23]: 57300 MedFI
- CD155-Fc binding (MedFI) [28]: 47700 MedFI
- CD155-Fc binding (MedFI) [29]: 58300 MedFI
- % positive [30]: 4.04%
- % positive [31]: 0.59%
- CD155-Fc binding (MedFI) [33]: 51700 MedFI

Substance: muIgG1 control antibody
- % positive [1]: 2.05%
- % positive [2]: 1.77%
- CD155-Fc binding (MedFI) [3]: 64400 MedFI
- % positive [4]: 1.42%
- % positive [5]: 0.95%
- % positive [7]: 0.27%
- % positive [37]: 0.49%
- % positive [8]: 0.98%
- % positive [9]: 0.76%
- CD155-Fc binding (MedFI) [10]: 71600 MedFI
- % positive [11]: 1.48%
- % positive [12]: 1%
- CD155-Fc binding (MedFI) [13]: 65400 MedFI
- % positive [14]: 2.34%
- % positive [15]: 1.9%
- % positive [16]: 1.09%
- % positive [17]: 0.83%
- % positive [22]: 0.42%
- % positive [38]: 0.75%
- CD155-Fc binding (MedFI) [23]: 71600 MedFI
- % positive [24]: 0.14%
- % positive [39]: 0.49%
- % positive [27]: 0.11%
- % positive [40]: 0.41%
- CD155-Fc binding (MedFI) [28]: 64300 MedFI
- CD155-Fc binding (MedFI) [29]: 66600 MedFI
- % positive [30]: 1.5%
- % positive [31]: 1.07%
- % positive [32]: 0.06%
- % positive [41]: 0.41%
- CD155-Fc binding (MedFI) [33]: 76000 MedFI
- % positive [34]: 0.03%
- % positive [35]: 0.18%
- % positive [42]: 0.48%
